One block for each substance: values may come before it.
How the values were obtained:
[1] = in vivo; cited from earlier work
[2] = molecular target: insulin receptor (Homo sapiens, UniProt P06213); assay: In-cell pIR immunoblotting (pIR/IR phosphorylation, 96-well plate assay) in HepG2 cells; format: cell-based; parameters: endogenous in cells; host or cells: HepG2 (human hepatocellular carcinoma; ATCC); conditions: for glucose-dependent activity in HepG2 cells in culture: as described in Chen, Y.-S., et al. (2021); for monosaccharide dependence of biological activity (pIR/IR phosphorylation): ±50 mM glucose or ±50 mM fructose
Description: After starvation, cells were treated in parallel with a set of insulin analogues in serum-free medium.
In-cell pIR immunoblotting. This cell-based assay probed insulin-dependent IR activation via fluorescent readouts. HepG2 cells were seeded (˜8000 cells/well) into a 96-well black plate with clear bottom and cultured (Fisher). After serum starvation in 100 μl plain Hanks' Balanced Salt Solution (HBSS) for 2 h at 37° C., serial analogue dilutions (100 μl) were applied to each well; cells were then incubated for 20 min at 37° C. After removing medium, 150 μl of 3.7% formaldehyde (Fisher) was added to each well, and plates incubated for 20 min at 37° C. 200 μl of 0.1% Triton-X-100 (Sigma) was then added to permeabilize the cells, followed by their fixation by 100-μl Odyssey Blocking Buffer (LI-COR). A blocking procedure was applied for 1 h at room temperature on an orbital shaker. Fixed cells were then exposed to the primary antibody (10 μL anti-pTyr 4G10 (Sigma) into 20 ml Blocking Buffer) overnight at 4° C. The secondary antibody (anti-mouse-IgG-800-CW antibody (Sigma) in 25 ml Blocking Buffer) was added after a wash. pTyr was detected via 800 nm emission. DRAQ5 (Fisher) was also applied to enable measurement of cell number via 700 nm emission. The fluorescence signals were detected on a LI-COR Infrared Imaging system (Odyssey) under settings as follows: offset 4 mm with setting “Intensity-Auto.”

[3] = tested on: PEPCK, ChREBP and SREBP gene expression in HepG2 cells; assay: Real-time qPCR assays of metabolic gene regulation in HepG2 cells; format: cell-based, human
Description: Cell culture. Human hepatocellular carcinoma cell line HepG2 was cultured in Dulbecco's Modified Eagle Medium (DMEM), supplemented with 10% fetal bovine serum (FBS), 1% penicillin/streptomycin as recommended by the American Type Culture Collection. A protocol employing 24-h serum starvation wherein FBS was applied at 70-75% confluence. After starvation, cells were treated in parallel with a set of insulin analogues in serum-free medium.
Real-time qPCR assays. Following serum starvation, HepG2 cells were treated with medium containing an insulin analogue (50 nM) for 8 h. In studies related to possible glucose responsiveness and lipid metabolism, the cells were treated with analogues for 3 or 4 h in media containing either low or normal glucose concentrations. Readouts were provided by downregulation of PEPCK and G6P and upregulation of ChREBP and SREBP. mRNA (messenger ribonucleic acid) abundances were measured in triplicate by quantitative polymerase chain reaction (qPCR). Samples were prepared as described by the vendor (One-Step rt-PCR reagent kits; Bio-Rad).

[4] = tested on: IR autophosphorylation and downstream p-AKT/AKT, p-FOXO1/FOXO1, p-GSK-3/GSK-3; assay: Western blot signaling assays in HepG2 cells; format: cell-based, human
Description: Signal propagation was probed via a cytoplasmic kinase cascade and changes in metabolic gene expression in HepG2 cells. […] An overview of IR autophosphorylation (probed by anti-pTyr IR antibodies) and downstream phosphorylation of Ser-Thr protein kinase AKT (protein kinase B; ratio p-AKT/AKT), forkhead transcription factor 1 (p-FOXO1/FOXO1), and glycogen synthase kinase-3 (p-GSK-3/GSK-3) at a single hormone dose (50 nM) was provided by Western blot (WB).
Signaling assays in a mammalian cell line. HepG2 cell line (ATCC) were cultured in DMEM with 10% FBS, 1% penicillin/streptomycin per vendor's instruction. After 70-75% cell confluence, cells were serum-starved for 24 h and then exposed to medium containing an insulin analogue (each at a protein concentration of 50 nM). After lysis in RIPA buffer (containing protease- and phosphatase-inhibitor cocktails; Roche), the total protein concentrations in the lysate was determined by BCA assay (Thermo). […] Briefly, for p-IR/IR blotting, samples were probed by insulin receptor β (4B8) antibody (CST antibodies unless otherwise stated) or an equal mixture of anti-phospho-insulin receptor β (Tyr1150/1151); phospho-insulin receptor (Tyr1158) antibody (Thermo); phospho-insulin receptor (Tyr1334) antibody (Thermo); phospho-insulin receptor β (Tyr1345) monoclonal antiserum; and anti-phospho-insulin receptor (phospho-Tyr972) antibody (Abcam). […]

Substance: insulin detemir
per molecule activity relative to human insulin [1]: fourfold reduced

glucose-dependent activity in HepG2 cells in culture [2]: glucose-dependent activity
Substance: GlyA−1, Cys(GBE1-C)A0, SecA6, SecA11, Lys(DHBA)B28-lispro [GRI-4]
monosaccharide dependence of biological activity (pIR/IR phosphorylation) ([2]; HepG2 cells): monosaccharide-dependent biological activity

Substance: FRI: insulin lispro with meta-fluoro-PBA on the α-amino group of GlyA1, 3,4-dihydroxybenzoic acid on LysB28, and HisA8
regulation of PEPCK gene expression ([3]; activated by fructose, hypoglycemic conditions, HepG2): regulated downstream expression
regulation of ChREBP and SREBP genes ([3]; activated by fructose, normoglycemic conditions, HepG2): regulated the genes
effect of glucose on metabolic gene regulation ([3]; addition of glucose instead of fructose): no effects
signaling activity ([4]; in the absence of fructose, 50 nM): low
fructose dependence of signaling (IR autophosphorylation, p-AKT/AKT, p-FOXO1/FOXO1, p-GSK-3/GSK-3) ([4]; single hormone dose 50 nM, HepG2 cells): fructose-dependent signaling
effect of glucose on IR autophosphorylation activity ([2]; addition of 50 mM glucose): did not influence its activity
IR autophosphorylation activity relative to KP ([2]; in 50 mM fructose): almost as active as KP
baseline IR autophosphorylation activity ([2]; in the absence of fructose): low
IR autophosphorylation signal ([2]; on addition of 50 mM fructose): robust signal

glucose-dependent activity in HepG2 cells in culture [2]: glucose-dependent activity
glucose dependence of pIR/IR phosphorylation ([2]; ±50 mM glucose, HepG2 cells): glucose-dependent IR phosphorylation
Substance: GlyA0, D-Cys(GBE1-C)A1, SecA6, SecA11, Lys(DHBA)B28-lispro [GRI-3]
glucose-dependent gene regulation ([3]; PEPCK, ChREBP and SREBP, HepG2 cells in culture): glucose-dependent gene regulation
monosaccharide dependence of biological activity (pIR/IR phosphorylation) ([2]; HepG2 cells): monosaccharide-dependent biological activity
